Molecular target: MUC4 protein (endogenous human MUC4 of pancreatic cancer cells and tumor tissue) (human) (UniProt Q99102)
Assay: flow cytometry, cell-surface staining of paraformaldehyde-fixed unpermeabilized cells (cell line not given), 1 µg antibody/10^6 cells, FITC anti-mouse secondary

MFI (mean fluorescence intensity) | Substance
14.2 | anti-KLH antibody K2G6
23.1 | anti-MUC4 TR MAb 8G7 (antibody)

— US20140199242A1
